# Positions count from the first letter of the chain named. Where two headings read alike, the source gives them in different places.
# T1: corticotropin-releasing hormone (CRH) peptide (human and mouse (same sequence), not fully specified)
# T1 peptide: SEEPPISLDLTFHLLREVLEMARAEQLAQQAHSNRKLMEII
# B1: PR302341-1 (antibody, human IgG1, kappa, V domains shown)
# VH: EVQLQQSGPELVKPGASVKMSCKASGYTFTDYFMKWVKQSHGESLEWIGVINPNNGDIFYNQKFKGKATLTVDKSSSTAFMQLNSLTSEDSAVYSCARGTDRALFAYWGQGTLVAVSA
# VL: DVVMTQSPLSLPVTLGQPASISCRSGQSIVHSDGNTYLEWFQQRPGQSPRRLIYKVSNRFSGVPDRFSGSGSGTDFTLKISRVEAEDVGVYYCFQGSHIPWTFGGGTKVEIKR
# B2: PR302341-31 (antibody, human IgG1, kappa, V domains shown)
# VH: QVQLVQSGAEVKKPGASVKVSCKASGYTFTDYFMKWVRQAPGQGLEWMGVINPNNGDIFYNQKFKGRVTMTVDKSISTAYMELSRLRSDDTAVYYCARGTDRALFAYWGQGTLVTVSS
# VL: B1 VL with G34A, F41Y, R51L, V88L
# B3: PR302341-72 (antibody, human IgG1, kappa, V domains shown)
# VH: B2 VH with G44R, M70I, V72R, K74T, I76A, R85S, D89E
# VL: B1 VL with D33S, F41Y, R51L, V88L
# B4: PR302341-42 (antibody, human IgG1, kappa, V domains shown)
# VH: B2 VH
# VL: B1 VL with D33S, F41Y, R51L, V88L
# B5: PR302341-34 (antibody, human IgG1, kappa, V domains shown)
# VH: B2 VH with N55Q
# VL: B1 VL with G34A, F41Y, R51L, V88L
# B6: PR302341-6 (antibody, human IgG1, kappa, V domains shown)
# VH: B1 VH
# VL: B1 VL with S7T, P12S, L15P, F41Y, Q42L, R44K, R50Q, R51L, V88L
# B7: PR302341-2 (antibody, human IgG1, kappa, V domains shown)
# VH: B1 VH
# VL: B1 VL with F41Y, R51L, V88L
# B8: PR302341-64 (antibody, human IgG1, kappa, V domains shown)
# VH: B2 VH with G44R, G56A, M70I, V72R, K74T, I76A, R85S, D89E
# VL: B1 VL with D33S, F41Y, R51L, V88L
# B9: PR302341-61 (antibody, human IgG1, kappa, V domains shown)
# VH: B2 VH with G44R, G56A, M70I, V72R, K74T, I76A, R85S, D89E
# VL: B1 VL with D33E, F41Y, R51L, V88L
# B10: PR302341-70 (antibody, human IgG1, kappa, V domains shown)
# VH: B2 VH with G44R, M70I, V72R, K74T, I76A, R85S, D89E
# VL: B1 VL with G34A, F41Y, R51L, V88L
# B11: PR302341-60 (antibody, human IgG1, kappa, V domains shown)
# VH: B2 VH with G44R, N55Q, M70I, V72R, K74T, I76A, R85S, D89E
# VL: B1 VL with G34A, F41Y, R51L, V88L
# B12: PR302341-40 (antibody, human IgG1, kappa, V domains shown)
# VH: B2 VH with N55S
# VL: B1 VL with D33S, F41Y, R51L, V88L
# B13: PR302341-5 (antibody, human IgG1, kappa, V domains shown)
# VH: B1 VH
# VL: B1 VL with V2I, S7T, P12S, L15P, F41Y, Q42L, R44K, R50Q, R51L
# B14: PR302341-33 (antibody, human IgG1, kappa, V domains shown)
# VH: B2 VH with G56A
# VL: B1 VL with G34A, F41Y, R51L, V88L
# B15: PR302341-35 (antibody, human IgG1, kappa, V domains shown)
# VH: B2 VH with G56A
# VL: B1 VL with D33E, F41Y, R51L, V88L
# B16: PR302341-37 (antibody, human IgG1, kappa, V domains shown)
# VH: B2 VH with N55S
# VL: B1 VL with G34A, F41Y, R51L, V88L
# B17: PR302341-62 (antibody, human IgG1, kappa, V domains shown)
# VH: B2 VH with G44R, N55S, M70I, V72R, K74T, I76A, R85S, D89E
# VL: B1 VL with D33E, F41Y, R51L, V88L
# B18: PR302341-3 (antibody, human IgG1, kappa, V domains shown)
# VH: B1 VH
# VL: B1 VL with V2I, S7T, L11S, F41L, S48P, R51L, S72A
# B19: PR302341-12 (antibody, human IgG1, kappa, V domains shown)
# VH: B2 VH with I76T, R85S, D89E
# VL: B1 VL with S7T, P12S, L15P, F41Y, Q42L, R44K, R50Q, R51L, V88L
# B20: PR302341-9 (antibody, human IgG1, kappa, V domains shown)
# VH: B2 VH with I76T, R85S, D89E
# VL: B1 VL with V2I, S7T, L11S, F41L, S48P, R51L, S72A
# B21: PR302341-4 (antibody, human IgG1, kappa, V domains shown)
# VH: B1 VH
# VL: B1 VL with S7T, L11S, F41Y, S48P, R51L, S72A, V88L
# B22: PR302341-30 (antibody, human IgG1, kappa, V domains shown)
# VH: B2 VH
# VL: B1 VL with D33E, F41Y, R51L, V88L
# B23: PR302341-7 (antibody, human IgG1, kappa, V domains shown)
# VH: B2 VH with I76T, R85S, D89E
# VL: B1 VL
# B24: PR302341-38 (antibody, human IgG1, kappa, V domains shown)
# VH: B2 VH with N55Q
# VL: B1 VL with D33S, F41Y, R51L, V88L
# B25: PR302341-36 (antibody, human IgG1, kappa, V domains shown)
# VH: B2 VH with N55S
# VL: B1 VL with D33E, F41Y, R51L, V88L
# B26: PR302341-11 (antibody, human IgG1, kappa, V domains shown)
# VH: B2 VH with I76T, R85S, D89E
# VL: B1 VL with V2I, S7T, P12S, L15P, F41Y, Q42L, R44K, R50Q, R51L
# B27: PR302341-41 (antibody, human IgG1, kappa, V domains shown)
# VH: B2 VH with N55S
# VL: B1 VL with F41Y, R51L, V88L
# B28: PR302341-39 (antibody, human IgG1, kappa, V domains shown)
# VH: B2 VH with G56A
# VL: B1 VL with D33S, F41Y, R51L, V88L
# B29: PR302341-28 (antibody, human IgG1, kappa, V domains shown)
# VH: B2 VH with N55Q
# VL: B1 VL with F41Y, R51L, V88L
# B30: PR302341-65 (antibody, human IgG1, kappa, V domains shown)
# VH: B2 VH with G44R, N55S, M70I, V72R, K74T, I76A, R85S, D89E
# VL: B1 VL with D33S, F41Y, R51L, V88L
# B31: PR302341-8 (antibody, human IgG1, kappa, V domains shown)
# VH: B2 VH with I76T, R85S, D89E
# VL: B1 VL with F41Y, R51L, V88L
# B32: PR302341-63 (antibody, human IgG1, kappa, V domains shown)
# VH: B2 VH with G44R, N55Q, M70I, V72R, K74T, I76A, R85S, D89E
# VL: B1 VL with D33E, F41Y, R51L, V88L
# B33: PR302341-29 (antibody, human IgG1, kappa, V domains shown)
# VH: B2 VH with G56A
# VL: B1 VL with F41Y, R51L, V88L
# B34: PR302341-32 (antibody, human IgG1, kappa, V domains shown)
# VH: B2 VH with N55Q
# VL: B1 VL with D33E, F41Y, R51L, V88L
# B35: PR302341-66 (antibody, human IgG1, kappa, V domains shown)
# VH: B2 VH with G44R, N55Q, M70I, V72R, K74T, I76A, R85S, D89E
# VL: B1 VL with D33S, F41Y, R51L, V88L
# B36: PR302341-71 (antibody, human IgG1, kappa, V domains shown)
# VH: B2 VH with G44R, M70I, V72R, K74T, I76A, R85S, D89E
# VL: B1 VL with D33E, F41Y, R51L, V88L
# B37: PR302341-13 (antibody, human IgG1, kappa, V domains shown)
# VH: B2 VH with V72R, K74T, I76T, A79V, R85S, D89E
# VL: DVLMTQTPLSLPVSLGDQASISCRSGQSIVHSDGNTYLEWYLQRPGQSPRLLIYKVSNRFSGVPDRFSGSGSGTDFTLKISRVGAEDLGIYYCFQGSHIPWTFGGGTKLEVKR
# B38: PR302341-18 (antibody, human IgG1, kappa, V domains shown)
# VH: B2 VH
# VL: B37 VL
# B39: PR302341-15 (antibody, human IgG1, kappa, V domains shown)
# VH: B2 VH with G44R, M70I, V72R, K74T, I76A, R85S, D89E
# VL: B37 VL
# B40: PR302341-16 (antibody, human IgG1, kappa, V domains shown)
# VH: B2 VH with G44R, M70I, I76A, R85S, D89E
# VL: B37 VL
# B41: PR302341-14 (antibody, human IgG1, kappa, V domains shown)
# VH: B2 VH with I76T, R85S, D89E
# VL: B37 VL
# B42: PR302341-17 (antibody, human IgG1, kappa, V domains shown)
# VH: B2 VH with V72R, K74T
# VL: B37 VL
# Assays:
# [1] = target: T1, corticotropin-releasing hormone (CRH) …; assay: cell-based or functional assay
# [2] = target: T1, corticotropin-releasing hormone (CRH) …; assay: cell-based or functional assay
Binder,hCRHR1 Luciferase Reporter Assay IC50 [1],hCRHR1 Luciferase Reporter Assay IC50 [2],further results
B1,0.397 nM,–,–
B2,–,0.498 nM,–
B3,–,1.73 nM,–
B4,–,1.98 nM,–
B5,–,0.616 nM,mCrhr1 Luciferase Reporter Assay IC50 [2]: 2.19 nM
B6,0.363 nM,–,–
B7,0.168 nM,–,–
B8,–,1.09 nM,–
B9,–,1.88 nM,hCRHR1 Reporter IC50 [2]: 1.82 nM
B10,–,1.6 nM,–
B11,–,0.878 nM,mCrhr1 Luciferase Reporter Assay IC50 [2]: 4.7 nM
B12,–,1.82 nM,–
B13,0.73 nM,–,–
B14,–,0.821 nM,mCrhr1 Luciferase Reporter Assay IC50 [2]: 1.66 nM
B15,–,1.75 nM,–
B16,–,0.792 nM,mCrhr1 Luciferase Reporter Assay IC50 [2]: 1.29 nM
B17,–,2.68 nM,–
B18,0.128 nM,–,–
B19,0.25 nM,–,–
B20,0.234 nM,–,–
B21,0.107 nM,–,–

Binder,hCRHR1 Luciferase Reporter Assay IC50 [1],hCRHR1 Luciferase Reporter Assay IC50 [2],further results
B22,–,0.457 nM,–
B23,0.23 nM,–,–
B24,–,1.78 nM,–
B25,–,1.77 nM,–
B26,0.467 nM,–,–
B27,–,0.471 nM,–
B28,–,1.04 nM,–
B29,–,0.267 nM,mCrhr1 Luciferase Reporter Assay IC50 [2]: 2.43 nM
B30,–,3.12 nM,–
B31,0.165 nM,–,mCrhr1 Luciferase Reporter Assay IC50 [1]: 0.357 nM
B32,–,2.05 nM,–
B33,–,0.427 nM,mCrhr1 Luciferase Reporter Assay IC50 [2]: 1.39 nM
B34,–,1.89 nM,–
B35,–,4.13 nM,–
B36,–,2.01 nM,–
B37,0.124 nM,–,–
B38,0.169 nM,–,–
B39,0.124 nM,–,–
B40,0.225 nM,–,–
B41,0.075 nM,–,–
B42,0.104 nM,–,–
